Test results: patent US20250076311A1 (Chugai, published 2025)

T1: Human latent myostatin (human, UniProt O14793 25-266; O14793 267-375)
T1 construct: Biotinylated in the ELISAs; also called human myostatin latent form
T1 sequence 1: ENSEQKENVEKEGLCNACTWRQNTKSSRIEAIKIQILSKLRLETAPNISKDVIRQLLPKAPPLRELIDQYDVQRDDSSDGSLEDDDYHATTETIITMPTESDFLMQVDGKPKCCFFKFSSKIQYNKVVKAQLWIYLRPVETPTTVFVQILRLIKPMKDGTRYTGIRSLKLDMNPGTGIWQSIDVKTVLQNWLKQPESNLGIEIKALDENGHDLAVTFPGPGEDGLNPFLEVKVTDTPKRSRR
T1 sequence 2: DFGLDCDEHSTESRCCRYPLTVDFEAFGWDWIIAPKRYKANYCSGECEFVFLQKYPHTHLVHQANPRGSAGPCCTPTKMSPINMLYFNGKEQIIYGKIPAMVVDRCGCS

T2: cynomolgus monkey FcγRIIa1 extracellular domain, His-tagged (cynomolgus monkey)
T2 construct: also called cyno FcγRIIa1; cynoFcgRIIa1; not shown: C-terminal His-tag
T2 chain: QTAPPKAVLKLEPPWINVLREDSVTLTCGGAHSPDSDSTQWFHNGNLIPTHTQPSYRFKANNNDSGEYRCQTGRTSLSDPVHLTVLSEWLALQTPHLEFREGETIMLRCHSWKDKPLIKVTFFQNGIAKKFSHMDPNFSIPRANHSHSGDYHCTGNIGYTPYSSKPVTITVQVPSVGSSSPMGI

T3: cynomolgus monkey FcγRIIa3 extracellular domain, His-tagged (cynomolgus monkey)
T3 construct: also called cyno FcγRIIa3; cynoFcgRIIa3; not shown: C-terminal His-tag
T3 chain: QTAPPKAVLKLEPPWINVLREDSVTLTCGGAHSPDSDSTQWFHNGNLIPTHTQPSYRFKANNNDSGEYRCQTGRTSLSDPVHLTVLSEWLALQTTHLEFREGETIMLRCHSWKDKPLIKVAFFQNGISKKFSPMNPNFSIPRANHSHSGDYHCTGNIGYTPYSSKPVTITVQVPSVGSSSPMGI

T4: cynomolgus monkey FcγRIIb extracellular domain, His-tagged (cynomolgus monkey)
T4 construct: also called cyno FcγRIIb; cynoFcγRIIb; not shown: C-terminal His-tag
T4 chain: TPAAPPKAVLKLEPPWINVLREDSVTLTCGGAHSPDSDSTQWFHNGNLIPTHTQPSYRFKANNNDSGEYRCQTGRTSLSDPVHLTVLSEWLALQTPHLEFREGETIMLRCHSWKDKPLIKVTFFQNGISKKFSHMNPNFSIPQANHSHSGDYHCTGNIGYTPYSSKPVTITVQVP

T5: human FcγRIIb extracellular domain, His-tagged (human, UniProt P31994 43-217)
T5 construct: also called FcgRIIb (human); not shown: C-terminal His-tag
T5 sequence: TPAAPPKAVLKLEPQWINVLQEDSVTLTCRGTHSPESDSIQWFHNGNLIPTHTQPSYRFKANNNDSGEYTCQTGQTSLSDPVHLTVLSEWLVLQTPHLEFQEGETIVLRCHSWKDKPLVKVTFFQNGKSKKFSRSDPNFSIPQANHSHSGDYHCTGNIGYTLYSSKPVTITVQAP


Experiments:
Human latent myostatin = target: T1, Human latent myostatin; assay: Western blot with the antibody as probe on GST-tagged 100-amino-acid fragments of the human latent myostatin propeptide expressed in E. coli BL21 (lanes 1-8), GST control (lane 9) and human latent myostatin 100 ng (lane 10)
From the text: Fragments of the N-terminal propeptide coding region of human latent myostatin were cloned into a pGEX4.1 vector so as to produce GST tagged propeptide fragments of 100 amino acid each, with 80 amino acid overlap (FIG. 22A). Protein expression was induced in transformed BL21 competent cells with Overnight Express Autoinduction System (Merck Millipore) and protein was extracted using the BUGBUSTER® protein extraction reagent (Novagen).

[1] = target: T2, cynomolgus monkey FcγRIIa1 …; assay: SPR Biacore, KD(SG1)/KD(variant)
[2] = target: T3, cynomolgus monkey FcγRIIa3 …; assay: SPR Biacore, KD(SG1)/KD(variant)
[3] = target: T4, cynomolgus monkey FcγRIIb extracellular …; assay: SPR Biacore, KD(SG1)/KD(variant)
[4] = target: T2, cynomolgus monkey FcγRIIa1 …; assay: SPR Biacore, antibody captured, FcgR analyte
[5] = target: T3, cynomolgus monkey FcγRIIa3 …; assay: SPR Biacore, antibody captured, FcgR analyte
[6] = target: T5, human FcγRIIb extracellular domain, …; assay: SPR Biacore, antibody captured, FcgR analyte
[7] = target: T6, human FcγRIIIaV extracellular domain, His-tagged (human, UniProt P08637 17-208); assay: SPR Biacore, KD(SG1)/KD(variant)
T6 construct: also called FcgRIIIaV; not shown: C-terminal His-tag
T6 sequence (P08637 17-208 F176V): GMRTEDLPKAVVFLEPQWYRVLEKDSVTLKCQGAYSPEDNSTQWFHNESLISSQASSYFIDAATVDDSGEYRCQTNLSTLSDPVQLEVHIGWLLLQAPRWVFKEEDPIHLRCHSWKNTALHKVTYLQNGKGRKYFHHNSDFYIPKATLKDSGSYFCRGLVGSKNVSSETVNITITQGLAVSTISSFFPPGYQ

| Binder | binding result (Human latent myostatin) | KD fold (SG1 = 1) [2] [fold] | KD fold (SG1 = 1) [7] [fold] | other results |
| --- | --- | --- | --- | --- |
| MST1572 (antibody, human IgG1, kappa, V domains shown, Constant regions as for MST1504) VH: QSVEESGGRLVTPGTPLTLTCTVSGFSLSSYAMSWVRQAPGKGLEWIGIIYGVGSTYYASWAKGRFTISKTSTTVDLKIASPTTEDTATYFCARDDYGWGYTNLWGPGTLVTVSS VL: QVLTQTPSSVSAAVGGTVTINCQSSQSVYNNNYLAWFQQKPGQPPKLLIYDASKLASGVPSRFKGSGSGTQFTLTISGVQCDDAATYYCQGSYYSSGWYRAFGGGTKVEIKR | binds |  |  |  |
| M103205H795-MY010/M103202L889-SK1 (antibody, human IgG1, kappa, name in EU numbering, Substitution introduced into M103205H795-SG1; EU numbering) heavy: not shown light: DIVMTQSPATLSLSPGERATLSCTSSQSVYHANWLSWFQQKPGQPPKLLIYWASTLAYGVPSRFSGSGSGTDFTLTISSLQPEDAATYYCAGGYGGGRYAFGQGTKVEIKRTVAAPSVFIFPPSDEQLKSGTASVVCLLNNFYPREAKVQWKVDNALQSGNSQESVTEQDSKDSTYSLSSTLTLSKADYEKHKVYACEVTHQGLSSPVTKSFNRGEC |  | 1.1 |  | KD fold (SG1 = 1) [1]: 0.9 fold; KD fold (SG1 = 1) [3]: 0.9 fold; Kd [4]: 3.5 µM; Kd [5]: 16 µM; Kd [6]: 5.1 µM |
| M103205H795-MY037/M103202L889-SK1 (antibody, human IgG1, kappa, name in EU numbering, Substitution introduced into M103205H795-SG1; EU numbering) heavy: not shown light: DIVMTQSPATLSLSPGERATLSCTSSQSVYHANWLSWFQQKPGQPPKLLIYWASTLAYGVPSRFSGSGSGTDFTLTISSLQPEDAATYYCAGGYGGGRYAFGQGTKVEIKRTVAAPSVFIFPPSDEQLKSGTASVVCLLNNFYPREAKVQWKVDNALQSGNSQESVTEQDSKDSTYSLSSTLTLSKADYEKHKVYACEVTHQGLSSPVTKSFNRGEC |  | 1.6 | 2.19 |  |
| M103205H795-MY016/M103202L889-SK1 (antibody, human IgG1, kappa, name in EU numbering, Substitution introduced into M103205H795-SG1) heavy: not shown light: DIVMTQSPATLSLSPGERATLSCTSSQSVYHANWLSWFQQKPGQPPKLLIYWASTLAYGVPSRFSGSGSGTDFTLTISSLQPEDAATYYCAGGYGGGRYAFGQGTKVEIKRTVAAPSVFIFPPSDEQLKSGTASVVCLLNNFYPREAKVQWKVDNALQSGNSQESVTEQDSKDSTYSLSSTLTLSKADYEKHKVYACEVTHQGLSSPVTKSFNRGEC |  |  | 2.19 |  |
| MST1538 (antibody, human IgG1, kappa, V domains shown, Constant regions as for MST1504) VH: QSLEESGGGLVKPGGTLTLTCKASGIDFSSYYYMCWVRQAPGKGLEWIACIYAGISGSTYYASWAKGRFTISKTSSTTVTLQMTSLTAADTATYFCARDPYHFDYGSLWGPGTLVTVSS VL: ALVMTQTPASVSAAVGGTVTINCQASQSVYGGNELSWYQQEPGQPPKLLIYSASKLASGVPSRFKGSGSGTQFTLTISGVQCDDAAAYYCAGYRTYSDDDNAFGGGTKVEIKR | binds |  |  |  |
